Results taken from paper PMC4200780, “Biochemical Characterization of a Carboxylesterase from the Archaeon Pyrobaculum sp. 1860 and a Rational Explanation of Its Substrate Specificity and Thermostability” (International Journal of Molecular Sciences, 2014).

Columns and labels:
Assay in all cases: p-nitrophenol release, Lineweaver-Burk
Type in all cases: biochemical, Pyrobaculum ferrireducens
[1] = substrate: CC(=O)Oc1ccc([N+](=O)[O-])cc1; details: 50 mM Tris-HCl pH 9.0, 80 °C
Text: (§1) p-nitrophenol release, Lineweaver-Burk on rP186_1588 ([…]_1588)

[2] = substrate: CCCC(=O)Oc1ccc([N+](=O)[O-])cc1; details: 50 mM Tris-HCl pH 9.0, 80 °C
Text: as §1

[3] = substrate: CCCCCCCC(=O)Oc1ccc([N+](=O)[O-])cc1; details: 50 mM Tris-HCl pH 9.0, 80 °C
Text: as §1

[4] = substrate: CCCCCCCCCC(=O)Oc1ccc([N+](=O)[O-])cc1; details: 50 mM Tris-HCl pH 9.0, 80 °C, substrate tested at 0.1-3 mM only
Text: as §1

B1: rP186_1588 (P186_1588) (Pyrobaculum ferrireducens) (protein)
chain: MSEKYVAVEGRRVRYLVGGSGRPVVLLHGWSFNADTWVESGVFNSLAGHFAVYAIDMPYGIRTKSERFQAPRREYAVFLRRVLDALDLADPPLVGPSASGEVVLWYVAKRLPTRAAVVVGPVGLAGELLEELRGAGVPILAVWGEGDEVSPPSRASLLRDVAKVVILRDAGHAAYLDKPGEFVEVVLDFLRGVY
notes: full length 194 aa (21,131 Da calculated, ~23 kDa on SDS-PAGE), His-tagged, synthetic gene in pET-28a(+) NdeI/BamHI, E. coli BL21(DE3), Ni-NTA purified, tag removal not mentioned
In the case of B1, the Km [1] is reported as 350 ± 10 µM, the kcat [1] is reported as 11.7 ± 0.48 s⁻¹ and the kcat/Km [1] is reported as 33300 ± 1370 M⁻¹ s⁻¹. The Km [2] was 1270 ± 40 µM, the kcat [2] was 9.12 ± 0.62 s⁻¹ and the kcat/Km [2] was 7180 ± 190 M⁻¹ s⁻¹. The Km [3] was 2640 ± 140 µM, the kcat [3] was 6.36 ± 0.28 s⁻¹ and the kcat/Km [3] was 2410 ± 110 M⁻¹ s⁻¹. It also gave a Km [4] of 4990 ± 210 µM, a kcat [4] of 6.19 ± 0.33 s⁻¹ and a kcat/Km [4] of 1240 ± 70 M⁻¹ s⁻¹.
